Biological target: T1, GST-RanBP2-M1_(900–1826) (human, UniProt P49792 900-1826)
T1 sequence (looked up): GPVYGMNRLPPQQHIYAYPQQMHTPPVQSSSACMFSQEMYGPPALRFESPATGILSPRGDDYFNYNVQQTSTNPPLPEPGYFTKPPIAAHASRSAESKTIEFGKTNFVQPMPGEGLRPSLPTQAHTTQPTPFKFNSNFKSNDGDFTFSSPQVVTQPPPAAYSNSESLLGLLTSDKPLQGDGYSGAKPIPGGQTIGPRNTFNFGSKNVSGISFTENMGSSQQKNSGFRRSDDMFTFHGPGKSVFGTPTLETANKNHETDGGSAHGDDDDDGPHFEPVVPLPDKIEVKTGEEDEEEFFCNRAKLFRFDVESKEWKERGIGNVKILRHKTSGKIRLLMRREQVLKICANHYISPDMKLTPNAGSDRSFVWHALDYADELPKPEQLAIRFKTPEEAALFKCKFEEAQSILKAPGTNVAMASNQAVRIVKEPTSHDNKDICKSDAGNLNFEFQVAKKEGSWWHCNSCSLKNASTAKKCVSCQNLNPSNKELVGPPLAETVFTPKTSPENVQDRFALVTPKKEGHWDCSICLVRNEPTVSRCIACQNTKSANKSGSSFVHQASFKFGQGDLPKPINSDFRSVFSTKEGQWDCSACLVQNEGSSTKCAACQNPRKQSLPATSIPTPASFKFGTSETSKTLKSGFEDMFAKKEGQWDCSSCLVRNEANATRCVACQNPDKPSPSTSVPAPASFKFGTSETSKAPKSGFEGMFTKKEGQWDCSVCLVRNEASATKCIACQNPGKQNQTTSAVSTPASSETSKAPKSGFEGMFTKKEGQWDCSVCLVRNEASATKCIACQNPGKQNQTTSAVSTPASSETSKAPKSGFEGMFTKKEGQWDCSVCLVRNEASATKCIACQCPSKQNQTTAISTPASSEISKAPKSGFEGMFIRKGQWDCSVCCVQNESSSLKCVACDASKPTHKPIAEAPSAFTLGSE
Assay: pull-down

B1: His-Imp-β1-N2_(1–650) (domain or fragment, human, UniProt Q14974 1-650, looked up)
chain: MELITILEKTVSPDRLELEAAQKFLERAAVENLPTFLVELSRVLANPGNSQVARVAAGLQIKNSLTSKDPDIKAQYQQRWLAIDANARREVKNYVLQTLGTETYRPSSASQCVAGIACAEIPVNQWPELIPQLVANVTNPNSTEHMKESTLEAIGYICQDIDPEQLQDKSNEILTAIIQGMRKEEPSNNVKLAATNALLNSLEFTKANFDKESERHFIMQVVCEATQCPDTRVRVAALQNLVKIMSLYYQYMETYMGPALFAITIEAMKSDIDEVALQGIEFWSNVCDEEMDLAIEASEAAEQGRPPEHTSKFYAKGALQYLVPILTQTLTKQDENDDDDDWNPCKAAGVCLMLLATCCEDDIVPHVLPFIKEHIKNPDWRYRDAAVMAFGCILEGPEPSQLKPLVIQAMPTLIELMKDPSVVVRDTAAWTVGRICELLPEAAINDVYLAPLLQCLIEGLSAEPRVASNVCWAFSSLAEAAYEAADVADDQEEPATYCLSSSFELIVQKLLETTDRPDGHQNNLRSSAYESLMEIVKNSAKDCYPAVQKTTLVIMERLQQVLQMESHIQSTSDRIQFNDLQSLLCATLQNVLRKVQHQDALQISDVVMASLLRMFQSTAGSGGVQEDALMAVSTLVEVLGGEFLKYMEAF
  binding result: binds
